Measurements published in paper PMC5881448 (The Journal of General Physiology, 2018).
Where no end group is shown, it is not given here.

Tests used:
[1] = molecular target: mEAG1 intrinsic-ligand peptide (mEAG1#696–702), fluorescein-labeled (mouse); assay: fluorescence polarisation
[2] = molecular target: hERG1 intrinsic-ligand peptide (hERG1#857–863), fluorescein-labeled (human) (UniProt Q12809); assay: fluorescence polarisation
zELKΔ740–742 channels = assay type: cell-based, Danio rerio; settings: inside-out patches, X. laevis oocytes, with or without MgATP

UniProt Q12809, sequence (Q12809 whole entry, looked up, tested part not stated): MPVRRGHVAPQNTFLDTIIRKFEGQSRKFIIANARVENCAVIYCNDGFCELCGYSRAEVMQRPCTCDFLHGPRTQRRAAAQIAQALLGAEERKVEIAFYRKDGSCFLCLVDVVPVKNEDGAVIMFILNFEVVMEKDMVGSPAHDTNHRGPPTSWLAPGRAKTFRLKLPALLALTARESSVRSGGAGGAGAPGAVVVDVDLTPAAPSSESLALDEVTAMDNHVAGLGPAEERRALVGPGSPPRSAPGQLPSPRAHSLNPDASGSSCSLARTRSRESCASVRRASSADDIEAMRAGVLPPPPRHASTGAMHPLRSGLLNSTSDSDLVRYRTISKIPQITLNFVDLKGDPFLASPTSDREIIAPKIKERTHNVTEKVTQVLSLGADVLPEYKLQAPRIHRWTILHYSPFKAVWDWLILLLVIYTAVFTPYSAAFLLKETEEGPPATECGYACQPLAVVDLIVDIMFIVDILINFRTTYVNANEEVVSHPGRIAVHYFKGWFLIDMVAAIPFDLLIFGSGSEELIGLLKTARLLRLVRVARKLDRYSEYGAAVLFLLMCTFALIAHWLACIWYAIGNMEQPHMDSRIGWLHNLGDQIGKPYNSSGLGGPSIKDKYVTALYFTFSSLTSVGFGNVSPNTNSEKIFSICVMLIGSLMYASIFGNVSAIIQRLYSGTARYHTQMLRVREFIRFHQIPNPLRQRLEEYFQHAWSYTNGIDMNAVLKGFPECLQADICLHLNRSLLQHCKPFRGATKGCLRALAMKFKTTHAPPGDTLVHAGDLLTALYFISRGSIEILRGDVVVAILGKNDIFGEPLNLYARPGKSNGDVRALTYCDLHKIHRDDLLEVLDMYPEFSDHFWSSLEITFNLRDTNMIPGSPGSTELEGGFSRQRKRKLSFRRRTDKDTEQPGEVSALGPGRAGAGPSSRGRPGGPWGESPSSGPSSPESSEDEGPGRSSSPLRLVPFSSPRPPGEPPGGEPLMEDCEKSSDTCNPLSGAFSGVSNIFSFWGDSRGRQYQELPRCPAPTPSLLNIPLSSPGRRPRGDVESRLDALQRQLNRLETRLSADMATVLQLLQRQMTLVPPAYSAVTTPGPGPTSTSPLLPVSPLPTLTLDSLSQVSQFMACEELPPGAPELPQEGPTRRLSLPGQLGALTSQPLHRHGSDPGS

Row | Kd [1] [µM] | Substance | Kd [2] [µM] | modulation of zELKΔ740–742 channels regardless of MgATP (zELKΔ740–742 channels)
1 | 85 | MBP–C-linker/CNBHD of zELK channel (Q543–L750), wild type (domain or fragment) | – | –
2 | 37 | MBP–C-linker/CNBHDΔ740–742 of zELK channel (Q543–L750 without Y740–L742) (domain or fragment) | 90 | –
3 | – | hERG1 peptide: intrinsic-ligand peptide from hERG1 channels (#857–863) (EITFNLR; also: fluorescein label, position not given here) | – | did not produce an appreciable amount of modulation
